Measurements as given in the Immune Epitope Database (IEDB).

Tests used:
Assay in all cases: IEDB peptide-MHC binding, purified MHC/competitive/radioactivity; filed as Kd, often an IC50 or EC50 that approximates it; ≥ and ≤ were set here for values at or beyond the usual limits of such assays
[1] = target: HLA-B*15:01
[2] = target: HLA-B*15:03
[3] = target: HLA-A*32:01
[4] = target: HLA-A*30:01
[5] = target: HLA-B*08:01
[6] = target: HLA-B*18:01
[7] = target: HLA-B*40:01
[8] = target: HLA-B*44:03
[9] = target: HLA-B*45:01
[10] = target: HLA-B*40:02
[11] = target: HLA-B*44:02
[12] = target: HLA-A*02:02; details: source organism: Vaccinia virus WR
[13] = target: HLA-A*02:06; details: source organism: Vaccinia virus WR
[14] = target: HLA-A*02:03; details: source organism: Vaccinia virus WR
[15] = source organism: Vaccinia virus WR
[16] = source organism: SARS coronavirus Tor2
[17] = source organism: Mammarenavirus whitewaterense
[18] = source organism: Mammarenavirus choriomeningitidis

## ISESRFQSL
[1]; [15]
  Kd: 2890 nM
[2]; [15]
  Kd: 147 nM
[3]; [15]
  Kd: 11100 nM
[4]; [15]
  Kd: 5920 nM
[5]; [15]
  Kd: 39.6 nM

## KELSPRWYFY
[6]; [16]
  Kd: 6750 nM
[7]; [16]
  Kd: 8570 nM
[8]; [16]
  Kd: 12.6 nM
[9]; [16]
  Kd: 4230 nM
[10]; [16]
  Kd: 309 nM
[11]; [16]
  Kd: 9.79 nM

## KMAVEVGSI
[2]; [15]
  Kd: 335 nM
[12]
  Kd: 30.8 nM
[13]
  Kd: 119 nM
[14]
  Kd: 2.78 nM

## LDIQKCGEL
[6]; [17]
  Kd: ≥ 53200 nM
[7]; [17]
  Kd: ≥ 46700 nM
[8]; [17]
  Kd: ≥ 78100 nM
[9]; [17]
  Kd: ≥ 56900 nM
[10]; [17]
  Kd: 9660 nM
[11]; [17]
  Kd: ≥ 77900 nM

## LLKDRNELF
[1]; [15]
  Kd: 1.82 nM
[2]; [15]
  Kd: 15.7 nM
[3]; [15]
  Kd: 3070 nM
[4]; [15]
  Kd: 108 nM
[5]; [15]
  Kd: 40.6 nM

## LSINSSFYF
[1]; source organism: Variola virus
  Kd: 1.02 nM
[2]; source organism: Variola virus
  Kd: 4.81 nM
[3]; source organism: Variola virus
  Kd: 2960 nM
[4]; source organism: Variola virus
  Kd: 970 nM
[5]; source organism: Variola virus
  Kd: 3160 nM

## METMFFIRF
[2]; [15]
  Kd: 52.6 nM

## MVKNNKIQK
[1]; [15]
  Kd: 18300 nM
[2]; [15]
  Kd: 9550 nM
[3]; [15]
  Kd: ≥ 77800 nM
[4]; [15]
  Kd: 11.8 nM
[5]; [15]
  Kd: 17800 nM

## NDSILSHNF
[6]; [18]
  Kd: 423 nM
[7]; [18]
  Kd: ≥ 76100 nM
[8]; [18]
  Kd: 11400 nM
[9]; [18]
  Kd: ≥ 77700 nM
[10]; [18]
  Kd: 5930 nM
[11]; [18]
  Kd: 182 nM
